# B1: Coiled-coil alpha-helical rod protein 1 (Homo sapiens), Q8TD31 (parent)
# chain: MFPPSGSTGLIPPSHFQARPLSTLPRMAPTWLSDIPLVQPPGHQDVSERRLDTQRPQVTMWERDVSSDRQEPGRRGRSWGLEGSQALSQQAEVIVRQLQELRRLEEEVRLLRETSLQQKMRLEAQAMELEALARAEKAGRAEAEGLRAALAGAEVVRKNLEEGSQRELEEVQRLHQEQLSSLTQAHEEALSSLTSKAEGLEKSLSSLETRRAGEAKELAEAQREAELLRKQLSKTQEDLEAQVTLVENLRKYVGEQVPSEVHSQTWELERQKLLETMQHLQEDRDSLHATAELLQVRVQSLTHILALQEEELTRKVQPSDSLEPEFTRKCQSLLNRWREKVFALMVQLKAQELEHSDSVKQLKGQVASLQEKVTSQSQEQAILQRSLQDKAAEVEVERMGAKGLQLELSRAQEARRRWQQQTASAEEQLRLVVNAVSSSQIWLETTMAKVEGAAAQLPSLNNRLSYAVRKVHTIRGLIARKLALAQLRQESCPLPPPVTDVSLELQQLREERNRLDAELQLSARLIQQEVGRAREQGEAERQQLSKVAQQLEQELQQTQESLASLGLQLEVARQGQQESTEEAASLRQELTQQQELYGQALQEKVAEVETRLREQLSDTERRLNEARREHAKAVVSLRQIQRRAAQEKERSQELRRLQEEARKEEGQRLARRLQELERDKNLMLATLQQEGLLSRYKQQRLLTVLPSLLDKKKSVVSSPRPPECSASAPVAAAVPTRESIKGSLSVLLDDLQDLSEAISKEEAVCQGDNLDRCSSSNPQMSS
# partner: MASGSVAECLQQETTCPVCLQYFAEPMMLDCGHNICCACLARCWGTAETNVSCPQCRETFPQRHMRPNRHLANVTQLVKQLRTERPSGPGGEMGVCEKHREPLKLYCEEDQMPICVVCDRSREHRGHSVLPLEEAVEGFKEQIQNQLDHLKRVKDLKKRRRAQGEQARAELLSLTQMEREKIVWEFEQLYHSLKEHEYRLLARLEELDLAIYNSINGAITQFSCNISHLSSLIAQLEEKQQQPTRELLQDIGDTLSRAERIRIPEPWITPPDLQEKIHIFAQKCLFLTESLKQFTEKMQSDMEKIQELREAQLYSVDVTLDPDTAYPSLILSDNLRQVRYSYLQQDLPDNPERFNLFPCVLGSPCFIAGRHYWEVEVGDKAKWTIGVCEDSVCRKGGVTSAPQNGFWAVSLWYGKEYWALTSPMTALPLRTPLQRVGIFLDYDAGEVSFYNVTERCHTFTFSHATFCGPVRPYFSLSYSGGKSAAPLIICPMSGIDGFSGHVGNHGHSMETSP
# B2: Coiled-coil alpha-helical rod protein 1 (Homo sapiens), Q8TD31 (parent)
# chain: B1 chain
# partner: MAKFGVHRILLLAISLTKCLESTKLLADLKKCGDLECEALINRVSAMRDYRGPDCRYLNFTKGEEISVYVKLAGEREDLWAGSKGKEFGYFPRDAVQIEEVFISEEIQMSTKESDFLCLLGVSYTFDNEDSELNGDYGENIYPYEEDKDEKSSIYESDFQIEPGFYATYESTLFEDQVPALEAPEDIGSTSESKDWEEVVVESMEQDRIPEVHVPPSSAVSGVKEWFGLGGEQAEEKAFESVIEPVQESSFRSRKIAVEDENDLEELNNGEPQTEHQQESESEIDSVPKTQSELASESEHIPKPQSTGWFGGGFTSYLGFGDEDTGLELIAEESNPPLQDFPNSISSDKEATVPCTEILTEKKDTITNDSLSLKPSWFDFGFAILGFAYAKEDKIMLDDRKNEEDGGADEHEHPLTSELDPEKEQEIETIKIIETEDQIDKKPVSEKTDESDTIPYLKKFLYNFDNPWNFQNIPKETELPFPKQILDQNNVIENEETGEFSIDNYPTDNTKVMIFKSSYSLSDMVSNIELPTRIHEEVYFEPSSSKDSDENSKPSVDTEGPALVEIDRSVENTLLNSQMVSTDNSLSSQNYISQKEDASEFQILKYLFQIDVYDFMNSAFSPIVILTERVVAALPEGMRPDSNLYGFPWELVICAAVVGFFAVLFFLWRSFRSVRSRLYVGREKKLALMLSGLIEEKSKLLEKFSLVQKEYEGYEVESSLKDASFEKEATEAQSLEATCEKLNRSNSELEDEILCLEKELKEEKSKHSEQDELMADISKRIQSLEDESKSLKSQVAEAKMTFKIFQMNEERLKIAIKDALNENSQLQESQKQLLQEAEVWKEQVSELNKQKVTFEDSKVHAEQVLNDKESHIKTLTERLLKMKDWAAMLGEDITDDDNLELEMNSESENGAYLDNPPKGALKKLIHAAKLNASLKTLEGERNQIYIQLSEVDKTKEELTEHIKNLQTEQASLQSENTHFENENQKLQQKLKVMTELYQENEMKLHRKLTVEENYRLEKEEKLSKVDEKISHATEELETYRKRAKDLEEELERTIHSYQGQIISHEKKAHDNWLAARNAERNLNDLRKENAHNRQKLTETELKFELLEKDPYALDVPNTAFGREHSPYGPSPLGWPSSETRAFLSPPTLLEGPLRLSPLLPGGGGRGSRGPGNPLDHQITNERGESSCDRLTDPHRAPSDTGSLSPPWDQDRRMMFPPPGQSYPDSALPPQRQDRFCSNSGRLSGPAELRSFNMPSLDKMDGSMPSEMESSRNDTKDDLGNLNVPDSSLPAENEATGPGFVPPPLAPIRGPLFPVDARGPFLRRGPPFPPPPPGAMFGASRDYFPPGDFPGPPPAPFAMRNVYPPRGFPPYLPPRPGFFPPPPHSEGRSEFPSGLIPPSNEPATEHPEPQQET
# B3: Coiled-coil alpha-helical rod protein 1 (Homo sapiens), Q8TD31 (parent)
# chain: B1 chain
# partner: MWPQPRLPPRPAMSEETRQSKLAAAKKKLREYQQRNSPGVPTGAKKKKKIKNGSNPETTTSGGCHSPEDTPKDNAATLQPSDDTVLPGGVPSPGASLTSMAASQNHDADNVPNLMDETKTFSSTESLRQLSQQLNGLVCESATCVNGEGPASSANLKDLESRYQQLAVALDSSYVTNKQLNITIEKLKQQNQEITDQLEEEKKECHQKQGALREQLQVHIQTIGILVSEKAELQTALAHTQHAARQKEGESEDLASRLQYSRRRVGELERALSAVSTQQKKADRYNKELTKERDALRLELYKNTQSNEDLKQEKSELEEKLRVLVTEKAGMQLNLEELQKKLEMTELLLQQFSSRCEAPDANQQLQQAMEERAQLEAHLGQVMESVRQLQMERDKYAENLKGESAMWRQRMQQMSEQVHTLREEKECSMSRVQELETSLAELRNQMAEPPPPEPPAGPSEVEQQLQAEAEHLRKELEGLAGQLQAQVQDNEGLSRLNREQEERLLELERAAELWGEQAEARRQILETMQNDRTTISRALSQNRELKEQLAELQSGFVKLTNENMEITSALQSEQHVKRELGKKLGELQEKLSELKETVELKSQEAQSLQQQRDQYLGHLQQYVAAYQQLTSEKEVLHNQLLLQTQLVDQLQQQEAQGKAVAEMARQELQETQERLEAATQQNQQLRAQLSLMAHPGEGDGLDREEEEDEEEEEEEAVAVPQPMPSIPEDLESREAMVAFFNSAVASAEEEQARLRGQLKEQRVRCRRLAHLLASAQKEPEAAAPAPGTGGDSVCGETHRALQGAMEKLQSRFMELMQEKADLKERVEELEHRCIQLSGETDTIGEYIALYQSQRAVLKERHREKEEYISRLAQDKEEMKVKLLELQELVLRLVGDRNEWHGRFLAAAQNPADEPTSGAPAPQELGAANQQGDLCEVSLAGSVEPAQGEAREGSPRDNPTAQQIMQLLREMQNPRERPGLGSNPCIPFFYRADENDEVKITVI
# B4: Coiled-coil alpha-helical rod protein 1 (Homo sapiens), Q8TD31 (parent)
# chain: B1 chain
# partner: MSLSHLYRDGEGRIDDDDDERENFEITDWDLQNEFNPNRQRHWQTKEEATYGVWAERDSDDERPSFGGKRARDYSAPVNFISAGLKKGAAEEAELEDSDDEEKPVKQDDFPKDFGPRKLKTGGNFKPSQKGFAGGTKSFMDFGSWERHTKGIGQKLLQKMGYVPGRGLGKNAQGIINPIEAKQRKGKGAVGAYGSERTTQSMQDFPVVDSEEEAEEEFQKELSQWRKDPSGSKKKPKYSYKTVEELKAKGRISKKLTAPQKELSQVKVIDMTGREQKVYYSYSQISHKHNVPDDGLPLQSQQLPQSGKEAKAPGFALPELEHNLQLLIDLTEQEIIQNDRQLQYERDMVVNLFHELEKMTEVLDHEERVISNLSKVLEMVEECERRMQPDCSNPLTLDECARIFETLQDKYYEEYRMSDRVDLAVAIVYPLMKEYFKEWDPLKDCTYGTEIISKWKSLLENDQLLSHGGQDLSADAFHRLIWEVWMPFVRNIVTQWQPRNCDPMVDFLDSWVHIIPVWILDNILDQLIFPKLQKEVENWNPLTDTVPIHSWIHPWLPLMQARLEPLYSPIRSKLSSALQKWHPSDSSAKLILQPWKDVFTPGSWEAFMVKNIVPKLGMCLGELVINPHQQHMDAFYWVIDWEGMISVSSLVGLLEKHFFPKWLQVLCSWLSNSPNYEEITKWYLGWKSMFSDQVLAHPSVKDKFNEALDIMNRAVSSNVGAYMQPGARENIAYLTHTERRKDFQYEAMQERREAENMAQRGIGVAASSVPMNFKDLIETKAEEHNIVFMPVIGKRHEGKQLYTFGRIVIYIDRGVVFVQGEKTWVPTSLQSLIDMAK
# B5: Coiled-coil alpha-helical rod protein 1 (Homo sapiens), Q8TD31 (parent)
# chain: B1 chain
# partner: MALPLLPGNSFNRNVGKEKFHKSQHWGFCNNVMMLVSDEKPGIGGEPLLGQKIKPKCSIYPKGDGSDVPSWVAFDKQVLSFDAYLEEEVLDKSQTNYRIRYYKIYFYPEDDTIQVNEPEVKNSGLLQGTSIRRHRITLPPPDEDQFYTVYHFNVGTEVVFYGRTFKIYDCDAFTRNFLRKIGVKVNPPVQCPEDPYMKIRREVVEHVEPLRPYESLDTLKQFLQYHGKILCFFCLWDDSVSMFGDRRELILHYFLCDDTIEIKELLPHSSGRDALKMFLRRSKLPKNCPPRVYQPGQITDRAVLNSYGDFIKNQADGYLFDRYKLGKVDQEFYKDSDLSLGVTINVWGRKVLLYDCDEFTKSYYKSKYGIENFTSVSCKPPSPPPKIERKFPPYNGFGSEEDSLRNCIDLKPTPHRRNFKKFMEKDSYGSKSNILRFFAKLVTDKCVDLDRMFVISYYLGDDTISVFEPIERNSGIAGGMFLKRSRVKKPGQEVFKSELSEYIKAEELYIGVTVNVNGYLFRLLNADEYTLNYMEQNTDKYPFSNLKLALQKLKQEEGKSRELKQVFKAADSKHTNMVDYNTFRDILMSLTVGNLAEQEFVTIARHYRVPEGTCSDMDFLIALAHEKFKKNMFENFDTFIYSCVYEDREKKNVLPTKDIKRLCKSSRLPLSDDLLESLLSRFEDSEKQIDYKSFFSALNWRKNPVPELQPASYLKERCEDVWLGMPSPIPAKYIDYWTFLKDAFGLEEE
# B6: TBC1 domain family member 22B (Homo sapiens), Q9NU19 (parent)
# chain: MAAENSKQFWKRSAKLPGSIQPVYGAQHPPLDPRLTKNFIKERSKVNTVPLKNKKASSFHEFARNTSDAWDIGDDEEEDFSSPSFQTLNSKVALATAAQVLENHSKLRVKPERSQSTTSDVPANYKVIKSSSDAQLSRNSSDTCLRNPLHKQQSLPLRPIIPLVARISDQNASGAPPMTVREKTRLEKFRQLLSSQNTDLDELRKCSWPGVPREVRPITWRLLSGYLPANTERRKLTLQRKREEYFGFIEQYYDSRNEEHHQDTYRQIHIDIPRTNPLIPLFQQPLVQEIFERILFIWAIRHPASGYVQGINDLVTPFFVVFLSEYVEEDVENFDVTNLSQDMLRSIEADSFWCMSKLLDGIQDNYTFAQPGIQKKVKALEELVSRIDEQVHNHFRRYEVEYLQFAFRWMNNLLMRELPLRCTIRLWDTYQSEPEGFSHFHLYVCAAFLIKWRKEILDEEDFQGLLMLLQNLPTIHWGNEEIGLLLAEAYRLKYMFADAPNHYRR
# Variants of: B1
# Conditions: with tri27_human TRIM27, P14373
row,Variant,effect of a mutation on the interaction
1,W337R,disrupting interaction strength

# Variants of: B2
# Conditions: with mia2_human MIA2, Q96PC5
row,Variant,effect of a mutation on the interaction
1,W337R,disrupting interaction strength

# Variants of: B3
# Conditions: with goga2_human GOLGA2, Q08379
row,Variant,effect of a mutation on the interaction
1,W337R,disrupting interaction strength

# Variants of: B4
# Conditions: with tfp11_human TFIP11, Q9UBB9
row,Variant,effect of a mutation on the interaction
1,W337R,with no effect

# Variants of: B5
# Conditions: with efhc2_human EFHC2, Q5JST6
row,Variant,effect of a mutation on the interaction
1,W337R,disrupting interaction strength

# Variants of: B6
# Conditions: with fxr2_human FXR2, P51116
# Sequence of fxr2_human FXR2, P51116 (P51116 whole entry): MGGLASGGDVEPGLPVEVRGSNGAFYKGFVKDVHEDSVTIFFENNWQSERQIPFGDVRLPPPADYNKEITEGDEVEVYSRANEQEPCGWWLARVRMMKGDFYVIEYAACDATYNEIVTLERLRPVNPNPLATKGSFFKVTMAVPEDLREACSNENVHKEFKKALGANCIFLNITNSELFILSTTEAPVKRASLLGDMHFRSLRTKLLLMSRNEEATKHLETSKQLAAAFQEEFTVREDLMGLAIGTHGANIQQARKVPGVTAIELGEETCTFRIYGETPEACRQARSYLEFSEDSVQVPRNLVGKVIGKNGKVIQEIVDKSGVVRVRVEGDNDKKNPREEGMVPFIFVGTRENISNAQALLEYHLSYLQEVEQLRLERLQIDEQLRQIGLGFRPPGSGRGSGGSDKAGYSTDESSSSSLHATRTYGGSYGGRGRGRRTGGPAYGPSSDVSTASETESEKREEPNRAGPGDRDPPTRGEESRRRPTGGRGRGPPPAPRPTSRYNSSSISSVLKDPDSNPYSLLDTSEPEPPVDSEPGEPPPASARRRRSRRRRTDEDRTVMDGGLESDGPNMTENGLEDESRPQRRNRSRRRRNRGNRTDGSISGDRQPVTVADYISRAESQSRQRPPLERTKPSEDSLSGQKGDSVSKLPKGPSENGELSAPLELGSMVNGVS
row,Variant,effect of a mutation on the interaction
1,A349T,disrupting interaction strength

# Variants of: B6
# Conditions: with ikzf3_human IKZF3, Q9UKT9
# Sequence of ikzf3_human IKZF3, Q9UKT9 (Q9UKT9 whole entry): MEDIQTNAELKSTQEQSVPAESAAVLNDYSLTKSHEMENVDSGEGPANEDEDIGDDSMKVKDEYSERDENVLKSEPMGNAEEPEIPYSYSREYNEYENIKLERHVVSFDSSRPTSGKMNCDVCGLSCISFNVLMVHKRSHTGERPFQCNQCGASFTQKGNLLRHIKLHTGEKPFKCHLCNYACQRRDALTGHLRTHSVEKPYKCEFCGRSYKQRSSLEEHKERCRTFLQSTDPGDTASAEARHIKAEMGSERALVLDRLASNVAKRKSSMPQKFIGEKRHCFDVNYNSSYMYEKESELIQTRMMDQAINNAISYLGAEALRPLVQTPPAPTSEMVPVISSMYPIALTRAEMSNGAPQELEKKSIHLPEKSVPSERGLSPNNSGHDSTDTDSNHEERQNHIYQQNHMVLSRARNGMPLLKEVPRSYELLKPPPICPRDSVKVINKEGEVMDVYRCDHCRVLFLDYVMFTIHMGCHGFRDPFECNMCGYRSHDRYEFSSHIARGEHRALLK
row,Variant,effect of a mutation on the interaction
1,A349T,disrupting interaction strength

# Variants of: B6
# Conditions: with tacc3_human TACC3, Q9Y6A5
row,Variant,effect of a mutation on the interaction
1,A349T,disrupting interaction strength

# Variants of: B6
# Conditions: with tri23_human TRIM23, P36406
# Sequence of tri23_human TRIM23, P36406 (P36406 whole entry): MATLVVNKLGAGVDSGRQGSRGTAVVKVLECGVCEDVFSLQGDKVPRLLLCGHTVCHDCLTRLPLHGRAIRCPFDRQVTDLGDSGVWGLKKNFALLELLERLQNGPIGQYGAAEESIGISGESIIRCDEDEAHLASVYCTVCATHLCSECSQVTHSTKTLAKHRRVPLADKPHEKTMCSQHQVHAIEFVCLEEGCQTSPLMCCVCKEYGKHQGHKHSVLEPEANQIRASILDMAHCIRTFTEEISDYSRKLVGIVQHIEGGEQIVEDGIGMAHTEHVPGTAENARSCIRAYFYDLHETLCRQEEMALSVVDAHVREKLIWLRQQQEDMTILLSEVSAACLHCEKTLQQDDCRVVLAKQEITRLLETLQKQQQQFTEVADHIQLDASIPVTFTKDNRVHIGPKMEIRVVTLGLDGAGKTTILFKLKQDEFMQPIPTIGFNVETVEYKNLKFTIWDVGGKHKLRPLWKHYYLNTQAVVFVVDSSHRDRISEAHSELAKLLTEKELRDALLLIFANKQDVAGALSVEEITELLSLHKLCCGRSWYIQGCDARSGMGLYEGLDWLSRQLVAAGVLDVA
row,Variant,effect of a mutation on the interaction
1,A349T,disrupting interaction strength

# Variants of: B6
# Conditions: with pnma5_human PNMA5, Q96PV4
# Sequence of pnma5_human PNMA5, Q96PV4 (Q96PV4 whole entry): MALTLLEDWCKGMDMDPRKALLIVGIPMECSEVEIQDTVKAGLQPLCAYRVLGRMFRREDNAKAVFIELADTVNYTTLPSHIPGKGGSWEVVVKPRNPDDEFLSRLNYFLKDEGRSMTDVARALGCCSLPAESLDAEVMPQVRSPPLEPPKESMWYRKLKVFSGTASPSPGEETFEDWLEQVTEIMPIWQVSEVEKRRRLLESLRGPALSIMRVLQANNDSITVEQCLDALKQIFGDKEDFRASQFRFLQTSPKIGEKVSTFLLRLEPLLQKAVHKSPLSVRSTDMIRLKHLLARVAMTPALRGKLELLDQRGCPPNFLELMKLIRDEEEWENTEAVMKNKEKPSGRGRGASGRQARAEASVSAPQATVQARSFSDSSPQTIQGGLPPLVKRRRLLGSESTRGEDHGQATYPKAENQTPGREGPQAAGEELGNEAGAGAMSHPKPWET
row,Variant,effect of a mutation on the interaction
1,A349T,disrupting interaction strength

# Reference: IntAct's records for PubMed 29892012
